{
  "source": "paper PMC10415141",
  "binders": {"B1": {"name": "3' long arm fork (DNA228/15Cy3) (mixed)", "DNA 1": "TTTTTTTTTTGCCGGTCGGGGTGGGTGGGAAGCGTAGGGAGAGGTG", "DNA 2": "CACCTCTCCCTACGCTTCCCACCCACCCCGACCGGCATCTGCTATGGTACGCTGAGCGAGAGTAGC"}},
  "key": {"MCM8;MCM9 680": {"target": "MCM8;MCM9 680 (Homo sapiens;Homo sapiens, UniProt Q9UJA3;Q9NXL9 1-840;1-680, |)", "sequence (Q9UJA3 whole entry, chain 1 of 2)": "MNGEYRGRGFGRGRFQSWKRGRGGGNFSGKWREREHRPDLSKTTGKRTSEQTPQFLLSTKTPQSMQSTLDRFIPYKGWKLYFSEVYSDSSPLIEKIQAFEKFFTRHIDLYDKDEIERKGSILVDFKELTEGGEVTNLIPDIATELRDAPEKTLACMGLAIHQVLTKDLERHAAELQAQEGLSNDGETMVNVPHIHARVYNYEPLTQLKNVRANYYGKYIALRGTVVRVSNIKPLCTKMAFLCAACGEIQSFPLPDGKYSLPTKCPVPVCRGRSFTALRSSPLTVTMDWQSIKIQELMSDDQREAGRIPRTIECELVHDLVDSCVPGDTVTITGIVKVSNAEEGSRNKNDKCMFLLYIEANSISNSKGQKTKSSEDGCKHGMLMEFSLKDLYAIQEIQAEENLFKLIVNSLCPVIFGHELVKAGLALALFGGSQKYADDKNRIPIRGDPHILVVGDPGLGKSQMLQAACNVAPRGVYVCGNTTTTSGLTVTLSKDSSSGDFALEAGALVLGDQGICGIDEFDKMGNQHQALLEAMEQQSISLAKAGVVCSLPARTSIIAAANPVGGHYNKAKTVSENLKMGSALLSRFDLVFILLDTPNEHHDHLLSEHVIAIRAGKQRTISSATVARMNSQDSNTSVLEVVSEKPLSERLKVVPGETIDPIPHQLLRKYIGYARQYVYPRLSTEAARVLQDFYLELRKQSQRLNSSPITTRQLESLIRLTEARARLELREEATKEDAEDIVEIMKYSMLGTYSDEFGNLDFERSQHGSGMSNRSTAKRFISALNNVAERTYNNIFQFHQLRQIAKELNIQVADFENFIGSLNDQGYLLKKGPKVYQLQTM", "sequence (Q9NXL9 1-680, chain 2 of 2)": "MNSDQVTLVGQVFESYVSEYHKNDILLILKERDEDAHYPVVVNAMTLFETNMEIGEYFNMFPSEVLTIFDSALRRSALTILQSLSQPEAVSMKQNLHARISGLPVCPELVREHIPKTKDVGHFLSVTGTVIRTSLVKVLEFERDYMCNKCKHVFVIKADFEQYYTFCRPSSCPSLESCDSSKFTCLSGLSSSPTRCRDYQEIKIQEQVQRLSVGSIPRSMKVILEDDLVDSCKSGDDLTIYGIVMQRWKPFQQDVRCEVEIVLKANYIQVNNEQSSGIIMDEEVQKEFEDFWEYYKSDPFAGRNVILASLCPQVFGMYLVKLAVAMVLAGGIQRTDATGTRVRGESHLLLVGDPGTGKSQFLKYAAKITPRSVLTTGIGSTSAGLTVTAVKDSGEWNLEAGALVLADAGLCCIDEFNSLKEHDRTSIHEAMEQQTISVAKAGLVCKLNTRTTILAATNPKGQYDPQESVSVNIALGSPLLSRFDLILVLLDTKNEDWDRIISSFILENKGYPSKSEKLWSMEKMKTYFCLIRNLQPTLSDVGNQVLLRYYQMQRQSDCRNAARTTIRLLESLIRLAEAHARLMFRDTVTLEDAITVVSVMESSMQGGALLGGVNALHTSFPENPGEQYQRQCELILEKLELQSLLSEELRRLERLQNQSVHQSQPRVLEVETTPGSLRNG", "experiment": "S1 nuclease protection"}, "MCM8 WB;MCM9 680 WB": {"target": "MCM8 WB;MCM9 680 WB (Homo sapiens;Homo sapiens, UniProt Q9UJA3;Q9NXL9 1-840;1-680, E519Q|E415Q)", "sequence (Q9UJA3 whole entry E519Q, chain 1 of 2)": "as the sequence (Q9UJA3 whole entry, chain 1 of 2) above, with E519Q counted along it", "sequence (Q9NXL9 1-680 E415Q, chain 2 of 2)": "as the sequence (Q9NXL9 1-680, chain 2 of 2) above, with E415Q counted along it", "experiment": "S1 nuclease protection"}},
  "data": [
    {"binder": "B1", "values": [
      {"measurement": "binding result", "setting": "MCM8;MCM9 680", "result": "binds"},
      {"measurement": "binding result", "setting": "MCM8 WB;MCM9 680 WB", "result": "binds"}
    ]}
  ]
}
